Measured values published in patent US20040138118A1.

Target: myostatin pro peptide (wild type) (human) (UniProt O14793)
Assay: cell-based or functional assay

myostatin pro peptide (wild type) (human), sequence (O14793 24-266): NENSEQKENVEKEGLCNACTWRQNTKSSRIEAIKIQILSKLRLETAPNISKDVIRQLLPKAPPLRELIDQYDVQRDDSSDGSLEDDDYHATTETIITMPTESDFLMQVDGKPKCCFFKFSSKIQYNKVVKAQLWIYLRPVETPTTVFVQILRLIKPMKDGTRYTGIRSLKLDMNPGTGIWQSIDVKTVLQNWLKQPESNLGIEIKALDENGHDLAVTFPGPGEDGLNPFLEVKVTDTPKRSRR

fraction of the proteolytically-cleaved myostatin complex active in the reporter assay: > 50%
Substance: mammalian Tolloid-like-1 (mTLL-1) (from UniProt O43897 148-1013) (enzyme)
